For one substance, EC50 results are on record in CN106632674A.

Test [1] has as its target PD-1ECD-TEV-mFc融合蛋白 (human). The test can be described thus: indirect ELISA, coated PD-1 Fc fusion (mFc form assumed for 5C4), run together with 6F5 and 6F5(Re). Background: In an ELISA, binding on a coated surface is turned into a signal by an enzyme label.
Test [2] addresses PD-1ECD-TEV-mFc融合蛋白 (human). Kind of test: indirect ELISA, coated PD-1 Fc fusion (mFc form assumed for 5C4), run together with 6F5H1L1 and 6F5H2L2.
In test [3] the target is PD-1ECD-TEV-hFc融合蛋白 (human). The test can be described thus: competition ELISA, antibody titrated from 1.5 ug/ml against PDL-1 Fc fusion (2 ug/ml; PDL-1-mFc assumed) on coated PD-1 Fc fusion (PD-1-hFc assumed).
Sequence of PD-1ECD-TEV-hFc融合蛋白 (human) (main, as listed by the source, form in doubt): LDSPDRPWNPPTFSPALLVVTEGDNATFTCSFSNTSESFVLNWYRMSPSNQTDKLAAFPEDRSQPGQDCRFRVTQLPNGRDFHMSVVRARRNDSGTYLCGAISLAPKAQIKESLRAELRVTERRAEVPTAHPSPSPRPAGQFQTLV

Sequence of PD-1ECD-TEV-mFc融合蛋白 (human) (main, as listed by the source, form in doubt): as above

Take 阳性对照抗体5C4 (antibody): the EC50 (in general, the concentration at which the effect is half-maximal) was 0.199 nM in test [1], 0.233 nM in test [2] and 1.46 nM in test [3].
